From publication PMC6769069

Target: HybD endoprotease fused with peptide T18 of adenylate cyclase (pT18-hybD) (Escherichia coli) (UniProt P37182)
Test: two-hybrid; bacterial two-hybrid (adenylate cyclase fragments T25 and T18) in E. coli BTH101; T25 at the N-terminus of the large subunit variants, T18 fused with HybD; anaerobic growth in TGYEP medium pH 6.5 at 30°C for 16 h; β-galactosidase activity according to Miller

Sequence of UniProt P37182 (P37182 whole entry, the tested form may be a part): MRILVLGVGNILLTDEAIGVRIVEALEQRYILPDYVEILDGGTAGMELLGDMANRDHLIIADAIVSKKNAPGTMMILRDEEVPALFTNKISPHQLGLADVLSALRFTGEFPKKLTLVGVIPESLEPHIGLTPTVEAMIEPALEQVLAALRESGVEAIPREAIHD

β-galactosidase activity: 820 units
Substance: pro-HybC^§ fused to peptide T25 of adenylate cyclase (pT25-hybC^§) (from UniProt P0ACE0 2-552)
